# Target: the molecule itself
# Test: solution structural model from NMR PRE distance restraints and SANS (M3 data-driven docking with HADDOCK); 145 PRE-derived distance restraints and six SANS curves; building blocks PDB 2hue and MD conformers of PDB 3q66; 33 structures, pairwise backbone RMSD 2.0 A; 50 mM citrate pH 6.5, 150 mM NaCl, 298 K
protein,measurement,value
"Vps75 (vacuolar protein sorting-associated protein 75) homodimer (natural protein, S. cerevisiae, UniProt P53853 1-264, looked up, Vps75, S. cerevisiae, full length; the C-terminal acidic domain (CTAD) is 226-264; isotope-labelled (ILV methyl, 15N, 2H) in some samples; also called Vps75_(2); ScVps75; source: E. coli BL21(DE3), purified (IMAC, TEV cleavage, ion exchange, SEC); not shown: His6, N-terminal, cleaved) MMSDQENENEHAKAFLGLAKCEEEVDAIEREVELYRLNKMKPVYEKRDAYIDEIAEFWKIVLSQHVSFANYIRASDFKYIDTIDKIKVEWLALESEMYDTRDFSITFHFHGIEGDFKEQQVTKVFQIKKGKDDQEDGILTSEPVPIEWPQSYDSINPDLIKDKRSPEGKKKYRQGMKTIFGWFRWTGLKPGKEFPHGDSLASLFSEEIYPFCVKYYAEAQRDLEDEEGESGLSADGDSEDDDGSLGEVDLPLSDEEPSSKKRKV",stoichiometry N,2 subunits

# From paper PMC6684614, “Histone chaperone exploits intrinsic disorder to switch acetylation specificity” (Nature Communications, 2019)
